Assay in all cases: EMSA
Conditions in all cases: not stated in the material held

The test system of data set [1] is ED-C-Ala (Escherichia coli).
In data set [2] the test system is C-Ala (Escherichia coli).
In data set [3] the test system is AlaRS full-length (Escherichia coli).

Consider one substance from paper PMC4559334.

As for tRNAAla, 3'-labelled, the Kd was 2.2 µM in data set [1], 0.8 µM in data set [2] and 3 µM in data set [3].
